Earlier results in article PMC4963854, “Mapping Protein–Protein Interactions of the Resistance-Related Bacterial Zeta Toxin–Epsilon Antitoxin Complex (ε2ζ2) with High Affinity Peptide Ligands Using Fluorescence Polarization” (Toxins, 2016).

Target: Zeta toxin (Streptococcus pyogenes) (UniProt Q54944)
Sequence (Q54944 2-287): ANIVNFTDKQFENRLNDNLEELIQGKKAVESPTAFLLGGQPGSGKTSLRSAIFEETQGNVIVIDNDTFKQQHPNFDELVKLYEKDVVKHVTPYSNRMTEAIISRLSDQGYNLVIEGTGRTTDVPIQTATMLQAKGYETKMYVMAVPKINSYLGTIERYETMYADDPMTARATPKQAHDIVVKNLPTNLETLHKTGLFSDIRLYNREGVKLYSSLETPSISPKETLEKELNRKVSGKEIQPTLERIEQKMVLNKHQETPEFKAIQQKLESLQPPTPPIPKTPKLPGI

Epsilon antitoxin, sequence (Q57231 2-90): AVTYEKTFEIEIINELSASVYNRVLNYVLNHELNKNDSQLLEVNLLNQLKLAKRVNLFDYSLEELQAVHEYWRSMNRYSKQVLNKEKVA

**Q.** Which Kd does the source give for Epsilon antitoxin (from UniProt Q57231) here?
**A.** 1000 nM
